{"source": "patent EP4711453A1", "about": "“PHENYLALANINE LYASE MUTANT, AND CONJUGATE THEREOF OR PHARMACEUTICALLY ACCEPTABLE SALT THEREOF” (Peg-Bio Biopharm Co., Ltd. (Chongqing), priority 2023, dated 2024)", "molecules": {"B1": {"name": "PL54-5: polyethylene glycol conjugate of PAL4 (SEQ ID NO: 6) with PEG-SPA-5K, molar ratio 1:16, average degree of modification 13.60 (conjugate)", "chain": "MKTLSQAQSKTSSQQFSFTGNSSANVIIGNQKLTINDVARVARNGTLVSLTNNTDILQGIQASCDYINNAVKSGEPIYGVTSGFGGMANVAISREQASELQTNLVWFLKTGAGNKLPLADVRAAMLLRANSHMRGASGIRLELIKRMEIFLNAGVTPYVYEFGSIGASGDLVPLSYITGSLIGLDPSFKVDFNGKEMDAPTALRQLNLSPLTLLPKEGLAMMNGTSVMTGIAANCVYDTKILTAIAMGVHALDIQALNGTNQSFHPFIHNSKPHPGQLWAADQMISLLANSQLVRDELDGKHDYRDHELIQDRYSLRCLPQYLGPIVDGISQIAKQIEIEINSVTDNPLIDVDNQASYHGGNFLGQYVGMGMDHLRYYIGLLAKHLDVQIALLASPEFSNGLPPSLLGNRERKVNMGLKGLQICGNSIMPLLTFYGNSIADRFPTHAEQFNQNINSQGYTSATLARKSVDIFQNYVAIALMFGVQAVDLRTYKKTGHYDARASLSPATERLYSAVRHVVGQKPTSDRPYIWNDNEQGLDEHIAKISADIAAGGVIVQAVQDILPSLH", "modifications": "PEG-SPA-5K conjugate, ~13.6 PEG per molecule"}}, "key": {"[1]": {"assay": "Subcutaneous/intravenous pharmacokinetics in dogs (double-antibody sandwich ELISA)", "format": "in vivo", "details": "beagle dogs; for dogs with accelerated blood clearance: 2 mg/kg once weekly", "protocol": "[…] Six beagle dogs were equally divided into two groups: the subcutaneous administration group and the intravenous administration group. […] Blood samples were collected from both groups on days 1, 3, 5, and 7 after the first administration, and on Day 1 and Day 3 after each subsequent administration. Serum plasma drug concentrations were measured using the double-antibody sandwich ELISA method (see Example 5 for details)."}, "[2]": {"test_system": "serum phenylalanine", "assay": "Serum phenylalanine concentration after multiple administrations in phenylketonuria model mice (LC-MS/MS)", "format": "in vivo", "details": "Pah^enu mice", "source_text": "Phenylalanine hydroxylase (PAH) was central to phenylalanine metabolism in animals, catalyzing the conversion of phenylalanine to tyrosine. Deficiency of this gene underlies phenylketonuria. […] Therefore, the homozygous mouse carrying the missense mutation F263S can be used as an animal model for phenylketonuria (referred to as the Pah^enu mouse or model mouse) in this drug study.\n(§1) To evaluate the polyethylene glycol conjugate PL54 of site-saturation modified phenylalanine lyase mutant, […] Pah^enu mice were allocated into five groups (four experimental groups and one control group), with six mice in each group. PL54-5 (average degree of modification 13.60, specific enzyme activity 1.27 U/mg) from Table 3 of Example 2 was administered to phenylketonuria animal model mice at low, medium, and high doses of 0.5 mg/kg, 1.5 mg/kg, and 4.5 mg/kg, respectively, via subcutaneous injection. The high-dose group of 4.5 mg/kg also included a group receiving intramuscular administration, once per week. The control group was administered phosphate buffered saline as a placebo subcutaneously once weekly. Blood samples were collected from mice in each group at 1 h before administration and at 2, 5, and 7 days after administration for each group. The content of PL54-5 in serum, changes in phenylalanine concentration (Reference: Judy Peat et al., Determination of Phenylalanine and Tyrosine by High Performance Liquid Chromatography-Tandem Mass Spectrometry), and Anti-PEG-IgM/IgG antibody titers (see Example 5 for details) were detected by sandwich ELISA (see Example 5 for details), and their pharmacokinetics were evaluated, see FIG. 6 to FIG.9 for details."}, "[3]": {"test_system": "anti-PAL4 protein antibodies", "assay": "Anti-PAL4 protein antibody after multiple administrations in phenylketonuria model mice", "format": "in vivo", "details": "Pah^enu mice"}, "[4]": {"test_system": "anti-PEG antibodies", "design": "species or system Pah^enu mice", "details": "mouse, in vivo", "protocol": "as §1"}, "[5]": {"design": "species or system Pah^enu mice", "details": "mouse, in vivo", "protocol": "as §1"}, "[6]": {"design": "species or system SD rats", "details": "rat, in vivo, sc, 2 mg/kg", "protocol": "To evaluate PEGylated conjugates of phenylalanine lyase or its mutants with different average degrees of modification, the inventors divided SD rats into four groups (n=6 per group). The animals were subcutaneously injected with PL54-1 and PL54-5 (average degrees of modification: 10.54 and 13.60, respectively) and PL5-1 and PL5-5 (average degrees of modification: 8.2 and 10.53, respectively) from Table 3 of Example 2 at a dose of 2 mg/kg once a week for four doses. Blood samples were collected on D1 (Day 1), D3 (Day 3), and D7 (Day 7) after the first dose, as well as on D3 and D7 following each subsequent dose. The concentrations of PL54-1, PL54-5, PL5-1, and PL5-5 in rat serum were determined by sandwich ELISA to assess plasma drug concentration maintenance after multiple administrations. Anti-PEG-IgM/IgG antibody titers in rat serum from each group were measured using indirect ELISA (coating with PEG-BSA, adding positive rat anti-PEG Abs/test serum samples, followed by HRP-conjugated anti-rat IgM/IgG detection), while bridging ELISA (coating with PAL protein, adding positive sheep anti-PAL Abs/acidified serum samples, followed by biotin-labeled PAL detection) was also performed. The plasma drug concentration results are shown in FIG. 4, and the antibody detection results after administration were shown in FIG. 4 and FIG. 5."}, "[7]": {"test_system": "anti-PAL-IgG", "assay": "Immunogenicity of conjugates with different PEG molecular weights in rats: anti-PAL-IgG (ELISA)", "format": "in vivo", "details": "for anti-PAL-IgG, x (average OD value of antibody detection by ELISA) / anti-PAL-IgG, Positive rate: 0.75 mg/kg s.c. once weekly", "protocol": "Polyethylene glycol conjugates of phenylalanine lyase or its mutant with different structures and modifier molecular weights, namely PL20, PL24, and PL54, were prepared according to the method described in Example 2. The phenylalanine lyase in PL20 has the amino acid sequence as set forth in SEQ ID NO: 1, and the polyethylene glycol has a molecular weight of 20K. The phenylalanine lyase in PL24 has the amino acid sequence as set forth in SEQ ID NO: 6, and the polyethylene glycol has a molecular weight of 2K. The phenylalanine lyase in PL54 has the amino acid sequence as set forth in SEQ ID NO: 6, and the polyethylene glycol has a molecular weight of 5K.\nTo evaluate the immunogenicity of PL20, PL24, and PL54 in animals, normal rats were selected and divided into 3 groups, with 6 rats per group (3 males and 3 females). Subcutaneous administration was performed at a dose of 0.75 mg/kg with PL54 (average degree of modification 13.6, 1.27 U/mg), PL24 (average degree of modification 13.3, 0.96 U/mg), and PL20 (average degree of modification 7.6, 1.14 U/mg) for the three groups, respectively. Administration was repeated 7 times, once weekly. Blood samples were collected 7 days after each administration. Serum anti-PEG-IgG and anti-PAL4 protein antibodies were detected by ELISA (refer to Example 5 for details). In the table, \"1-7\" indicated 7 days after the first administration, and \"7-7\" indicated 7 days after the seventh administration. x represented the average OD value of antibody detection by ELISA, and the positive rate represented the ratio of the number of antibody-positive animals to the total number of animals in the group. Table 6: Antibody titers in rats after multiple administrations of polyethylene glycol conjugates with different molecular weights"}}, "data": [{"molecule": "B1", "values": [{"measurement": "bioavailability of subcutaneous administration relative to intravenous administration", "setting": "[1]; 2 mg/kg", "result": 64.4, "unit": "%"}, {"measurement": "dogs with accelerated blood clearance", "setting": "[1]; after multiple intravenous administrations", "result": "2/3"}, {"measurement": "dogs with accelerated blood clearance", "setting": "[1]; after multiple subcutaneous administrations", "result": "1/3"}, {"measurement": "peak time of blood drug concentration", "setting": "[1]; 2 mg/kg, single intravenous administration", "result": 1, "unit": "days"}, {"measurement": "peak time of blood drug concentration", "setting": "[1]; 2 mg/kg, single subcutaneous administration", "result": 3, "unit": "days"}, {"measurement": "efficacy after intramuscular administration", "setting": "[2]; 4.5 mg/kg intramuscular once per week", "result": "consistent with that after subcutaneous administration"}, {"measurement": "serum phenylalanine", "setting": "[2]; high dose 4.5 mg/kg s.c., within 2 days after the first administration", "result": "below the method detection limit"}, {"measurement": "reduction of serum phenylalanine levels", "setting": "[2]; high-dose group 4.5 mg/kg s.c., after five repeated administrations, within 2 days", "result": "more than 90%"}, {"measurement": "decrease of serum phenylalanine levels", "setting": "[2]; medium-dose group 1.5 mg/kg s.c., after five repeated administrations", "result": "approximately 75%"}, {"measurement": "anti-PAL4 protein antibodies", "setting": "[3]; intramuscular administration group", "result": "weak positivity"}, {"measurement": "anti-PAL4 protein antibodies", "setting": "[3]; subcutaneous administration group", "result": "negative"}, {"measurement": "S/N values of IgG and IgM antibodies (anti-PEG)", "setting": "[4]", "result": "decreased with increasing number of administrations"}, {"measurement": "anti-PEG antibodies", "setting": "[4]", "result": "positive"}, {"measurement": "plasma drug concentration in relation to the administration dose", "setting": "[5]", "result": "directly proportional to the administration dose"}, {"measurement": "plasma drug concentration, intramuscular compared with subcutaneous", "setting": "[5]; 4.5 mg/kg", "result": "higher than that in the subcutaneous administration group"}, {"measurement": "plasma drug maintenance", "setting": "[6]", "result": "superior to that of PL5-1 and PL5-5"}, {"measurement": "anti-PAL-IgG, x (average OD value of antibody detection by ELISA)", "setting": "[7]; 1-7 (7 days after the first administration)", "result": "x=0.107"}, {"measurement": "anti-PAL-IgG, Positive rate", "setting": "[7]; 1-7, antibody-positive animals / animals in the group", "result": "Positive rate: 2/6"}, {"measurement": "anti-PAL-IgG, x (average OD value of antibody detection by ELISA)", "setting": "[7]; 7-7 (7 days after the seventh administration)", "result": "x=0.089"}, {"measurement": "anti-PAL-IgG, Positive rate", "setting": "[7]; 7-7, antibody-positive animals / animals in the group", "result": "Positive rate: 0/6"}, {"measurement": "anti-PAL4 protein antibody", "setting": "[7]; 7 days after seven doses", "result": "No anti-PAL4 protein antibody was detected"}]}]}
